This assay addresses GST-Rac1A, active (GTPγs-bound), P34144. Briefly: pull-down (GST-Rac1A), immunoblot quantification. As to conditions: chain shown with the change, mean ± SEM, n = 3, parent: 1.9% ± 0.9% SEM. A general note: Immunoblotting shows a protein as a band on a membrane.

B1: GFP-WASP (Dictyostelium Wiskott-Aldrich syndrome protein, wild type) I173A; F179A (protein)
chain: MGSPTISDQEKSQVAFIAGSSSDIHSTTVARLYEGRQGRWEFMAVGIVSVVSNRVDKTNYIKVFDLKANYRIIFEQEIYDTFEFQKQRDFFFAFEGDSCVYGLSFADVTEAAEFYGQLLNCKQGNIGKTAAINPNTSSTKITASTPAPKVEKKKEKKGFMSKFFSSEEKDLEASAPTNAKHESHIGWDPENGFDIKNIPPDWRKLFQSAGIKKSELKNAETAQFIVNIIGEQMVGGSAPPPTQPGRSAPPAPPSSNQPGRSAPPPPPSVGKSAPPPPPPSHKTPAAPPSGGGAPPPPPPPPPPSSGPPPPPPPMASAPPSSGGGGASGGGRNDLLASIRSGASLKAVDKTNPLPDIQSLGNEGSRSLADTLAAAMANRRGGMREDDEEDDDDDDEWSDY
For the molecule B1, the response (% binding to GTPγS-loaded Rac1A) was determined as 0.1.
